The data set concerns the target BmrR;RNAP-sigmaA holoenzyme (Bacillus subtilis;Bacillus subtilis, UniProt P39075;P20429;P37870;P37871;O35011;O31718;P06224 …, |). Put plainly: EMSA; TPP 500 uM; heparin challenge; stable open complex stated in peer review file; EMSA: 10 mM HEPES pH 7.5, 100 mM KCl, 5 mM MgCl2, 3 mM DTT, 1 h room temperature, 0.75 uM RNAP, 0.5 uM DNA, 0 or 2 uM BmrR, 0 or 500 uM TPP, heparin 100 ug/ml when indicated; 5% TBE gel. Particulars: protein: recombinant;native; tags: ;; chain copies: 2;2;1;1;1;1;1.

B1: Pbmr-wt1 (dsDNA)
DNA 1: TTTAGAAAGATTTTGCAAATCCGTTGACTCTCCCCTAGGAGGAGGTCTTACAGTATAAGGGATACACACTTG
DNA 2: CAAGTGTGTATCCCTTATACTGTAAGACCTCCTCCTAGGGGAGAGTCAACGGATTTGCAAAATCTTTCTAAA
With B1, the binding result is “binds”.

B2: Pbmr-2 (mixed)
DNA 1: TTTAGAAAGATTTTGCAAATCCGTTGACTCTCCCCTAGGAGGAGGTCTTATAATGGGAGCTGTCACGGATGC
DNA 2: GCATCCGTGACAGCTCCCATTATAAGACCTCCTCCTAGGGGAGAGTCAACGGATTTGCAAAATCTTTCTAAA
Turning to B2, the binding result was “binds”.

For the origin of these results see publication PMC7722741, “The bacterial multidrug resistance regulator BmrR distorts promoter DNA to activate transcription”.
